Measured values as given in article PMC10153460.

What was measured:
[1] = molecular target: smc1p-T1117I cohesin (S. cerevisiae) (UniProt P32908)
[2] = molecular target: cohesin with Smc1p-D1164E (S. cerevisiae) (UniProt P32908)
[3] = molecular target: cohesin with Smc1p-T1117W (S. cerevisiae) (UniProt P32908)

Sequence of cohesin with Smc1p-D1164E (S. cerevisiae) (P32908 whole entry D1164E, chain 1 of 4): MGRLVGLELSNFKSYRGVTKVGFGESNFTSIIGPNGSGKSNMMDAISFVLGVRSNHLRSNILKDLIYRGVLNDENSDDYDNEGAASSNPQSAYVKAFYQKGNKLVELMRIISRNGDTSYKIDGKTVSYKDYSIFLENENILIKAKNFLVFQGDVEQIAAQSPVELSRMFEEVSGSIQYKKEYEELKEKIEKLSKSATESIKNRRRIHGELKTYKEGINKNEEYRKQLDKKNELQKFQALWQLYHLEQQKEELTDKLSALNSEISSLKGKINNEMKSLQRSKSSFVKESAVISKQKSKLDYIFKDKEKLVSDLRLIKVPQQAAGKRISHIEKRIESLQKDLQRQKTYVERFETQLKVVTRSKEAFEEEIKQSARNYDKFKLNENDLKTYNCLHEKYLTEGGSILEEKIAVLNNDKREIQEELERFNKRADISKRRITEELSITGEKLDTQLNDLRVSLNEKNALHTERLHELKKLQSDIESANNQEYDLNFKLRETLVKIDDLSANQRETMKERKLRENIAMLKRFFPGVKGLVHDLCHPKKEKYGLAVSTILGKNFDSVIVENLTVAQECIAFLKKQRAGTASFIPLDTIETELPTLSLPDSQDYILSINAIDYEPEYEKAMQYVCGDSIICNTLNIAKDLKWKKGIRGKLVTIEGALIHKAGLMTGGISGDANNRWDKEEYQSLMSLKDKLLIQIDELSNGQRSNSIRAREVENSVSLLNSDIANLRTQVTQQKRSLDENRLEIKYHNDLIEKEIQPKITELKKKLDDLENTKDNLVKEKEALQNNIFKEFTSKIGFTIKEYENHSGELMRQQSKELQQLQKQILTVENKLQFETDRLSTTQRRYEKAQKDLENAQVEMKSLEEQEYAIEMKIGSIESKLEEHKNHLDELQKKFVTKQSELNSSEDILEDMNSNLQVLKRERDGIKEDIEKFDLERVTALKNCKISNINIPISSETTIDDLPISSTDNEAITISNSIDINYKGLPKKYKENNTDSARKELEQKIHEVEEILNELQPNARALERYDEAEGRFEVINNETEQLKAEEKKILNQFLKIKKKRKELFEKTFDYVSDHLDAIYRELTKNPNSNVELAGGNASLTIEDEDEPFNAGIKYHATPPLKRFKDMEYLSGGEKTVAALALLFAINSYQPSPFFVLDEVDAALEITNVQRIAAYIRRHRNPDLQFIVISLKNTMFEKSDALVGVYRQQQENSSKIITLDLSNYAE
Sequence of cohesin with Smc1p-D1164E (S. cerevisiae) (P47037 whole entry, chain 2 of 4, further chain): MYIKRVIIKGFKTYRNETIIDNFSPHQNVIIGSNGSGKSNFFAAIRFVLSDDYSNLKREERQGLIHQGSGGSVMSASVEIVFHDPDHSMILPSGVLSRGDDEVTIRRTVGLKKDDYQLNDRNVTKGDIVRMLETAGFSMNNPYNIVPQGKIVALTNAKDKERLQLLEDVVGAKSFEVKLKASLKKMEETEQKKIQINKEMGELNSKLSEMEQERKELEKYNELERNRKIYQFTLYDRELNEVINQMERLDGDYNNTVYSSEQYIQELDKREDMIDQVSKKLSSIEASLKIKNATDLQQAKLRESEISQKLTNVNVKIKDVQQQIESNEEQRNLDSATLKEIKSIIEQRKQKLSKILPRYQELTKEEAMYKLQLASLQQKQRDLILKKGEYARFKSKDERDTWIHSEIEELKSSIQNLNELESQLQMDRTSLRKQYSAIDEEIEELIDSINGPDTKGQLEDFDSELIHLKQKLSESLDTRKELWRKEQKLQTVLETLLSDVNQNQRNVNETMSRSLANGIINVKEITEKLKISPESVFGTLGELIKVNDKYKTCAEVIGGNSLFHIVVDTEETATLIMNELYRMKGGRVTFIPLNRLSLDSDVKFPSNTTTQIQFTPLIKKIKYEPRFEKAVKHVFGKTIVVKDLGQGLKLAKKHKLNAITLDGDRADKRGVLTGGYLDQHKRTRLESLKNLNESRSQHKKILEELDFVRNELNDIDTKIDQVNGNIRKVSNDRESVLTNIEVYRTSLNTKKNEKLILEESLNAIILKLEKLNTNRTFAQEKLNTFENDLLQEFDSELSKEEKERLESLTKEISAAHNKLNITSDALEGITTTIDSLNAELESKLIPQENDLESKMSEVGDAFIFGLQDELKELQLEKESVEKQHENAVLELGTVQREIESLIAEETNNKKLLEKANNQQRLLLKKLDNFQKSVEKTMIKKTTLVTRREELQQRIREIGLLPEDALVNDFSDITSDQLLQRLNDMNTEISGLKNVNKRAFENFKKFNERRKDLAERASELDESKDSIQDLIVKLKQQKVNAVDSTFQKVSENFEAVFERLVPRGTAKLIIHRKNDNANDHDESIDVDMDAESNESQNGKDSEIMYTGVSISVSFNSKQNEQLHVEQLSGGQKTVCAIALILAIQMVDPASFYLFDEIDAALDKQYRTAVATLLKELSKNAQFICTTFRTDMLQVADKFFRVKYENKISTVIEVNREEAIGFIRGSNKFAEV
Sequence of cohesin with Smc1p-D1164E (S. cerevisiae) (Q12158 whole entry, chain 3 of 4, further chain): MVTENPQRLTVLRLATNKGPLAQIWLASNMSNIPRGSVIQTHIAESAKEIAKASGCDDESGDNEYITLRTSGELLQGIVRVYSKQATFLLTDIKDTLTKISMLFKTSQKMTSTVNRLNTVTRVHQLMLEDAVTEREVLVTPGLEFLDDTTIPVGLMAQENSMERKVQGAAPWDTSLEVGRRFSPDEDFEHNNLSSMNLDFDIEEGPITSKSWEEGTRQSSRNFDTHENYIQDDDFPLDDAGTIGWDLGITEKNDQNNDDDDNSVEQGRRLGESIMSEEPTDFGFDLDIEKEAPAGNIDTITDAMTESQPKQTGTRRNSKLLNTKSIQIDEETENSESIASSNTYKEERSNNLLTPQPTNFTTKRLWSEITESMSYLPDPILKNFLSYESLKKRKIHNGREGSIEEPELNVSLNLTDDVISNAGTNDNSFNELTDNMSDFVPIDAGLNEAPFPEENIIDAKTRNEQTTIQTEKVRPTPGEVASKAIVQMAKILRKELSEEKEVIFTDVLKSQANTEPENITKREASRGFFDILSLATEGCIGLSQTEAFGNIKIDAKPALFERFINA
Sequence of cohesin with Smc1p-D1164E (S. cerevisiae) (P40541 whole entry, chain 4 of 4, further chain): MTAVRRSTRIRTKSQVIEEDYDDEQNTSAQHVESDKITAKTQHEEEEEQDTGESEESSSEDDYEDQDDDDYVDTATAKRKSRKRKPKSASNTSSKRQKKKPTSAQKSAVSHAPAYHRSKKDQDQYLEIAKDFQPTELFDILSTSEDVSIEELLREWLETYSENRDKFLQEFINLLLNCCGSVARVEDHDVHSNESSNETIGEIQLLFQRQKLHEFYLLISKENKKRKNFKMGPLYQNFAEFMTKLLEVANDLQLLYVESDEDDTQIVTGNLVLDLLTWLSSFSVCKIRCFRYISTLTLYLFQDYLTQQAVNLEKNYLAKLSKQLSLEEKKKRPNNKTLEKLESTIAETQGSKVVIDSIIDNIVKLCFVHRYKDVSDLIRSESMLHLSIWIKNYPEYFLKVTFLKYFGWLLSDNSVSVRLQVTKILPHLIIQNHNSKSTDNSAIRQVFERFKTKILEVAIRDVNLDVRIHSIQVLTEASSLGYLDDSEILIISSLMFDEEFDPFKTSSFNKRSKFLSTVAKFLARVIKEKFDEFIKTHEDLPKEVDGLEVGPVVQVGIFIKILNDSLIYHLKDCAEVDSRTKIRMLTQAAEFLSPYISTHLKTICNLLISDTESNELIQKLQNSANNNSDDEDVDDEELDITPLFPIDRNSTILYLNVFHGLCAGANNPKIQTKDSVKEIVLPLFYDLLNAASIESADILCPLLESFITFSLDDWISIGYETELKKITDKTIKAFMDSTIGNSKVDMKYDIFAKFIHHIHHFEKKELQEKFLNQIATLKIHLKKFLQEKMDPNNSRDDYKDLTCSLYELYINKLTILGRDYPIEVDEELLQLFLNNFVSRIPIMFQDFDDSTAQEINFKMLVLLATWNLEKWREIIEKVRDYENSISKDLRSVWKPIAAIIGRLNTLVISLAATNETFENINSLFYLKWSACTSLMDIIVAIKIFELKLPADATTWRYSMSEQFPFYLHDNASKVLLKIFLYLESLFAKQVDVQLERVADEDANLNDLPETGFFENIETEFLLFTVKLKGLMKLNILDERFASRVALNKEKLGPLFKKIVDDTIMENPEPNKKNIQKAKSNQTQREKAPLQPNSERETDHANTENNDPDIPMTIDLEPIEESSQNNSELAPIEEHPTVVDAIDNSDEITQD

ATPase activity of purified cohesin in the presence of DNA with Scc2p, against wild-type cohesin with Scc2p; EnzChek phosphate assay (% greater than wild-type cohesin) [1]: 50 | ATPase activity of purified cohesin in the presence of DNA, induction by Scc2p against that of wild-type cohesin; EnzChek phosphate assay (fold less than wild type) [2]: 2 | ATPase activity of purified cohesin in the presence of DNA, induction by Scc2p against that of wild-type cohesin; EnzChek phosphate assay (fold less than wild type) [3]: 2
Substance: Scc2p/Scc4p (cohesin loader) (from UniProt Q04002 1-1493; P40090 1-624) (complex)
